We go through 36 variants from the Human Domainome abundance scans (Beltran et al. 2025).

The chains are these.
B1: Retinoic acid receptor beta, residues 85 to 161; numbered along this chain, P10826 (parent)
chain: YKPCFVCQDKSSGYHYGVSACEGCKGFFRRSIQKNMIYTCHRDKNCVINKVTRNRCQYCRLQKCFEVGMSKESVRND

± gives the uncertainty stated by the source.

The variants in this data set derive from B1. Nature of the data set: abundance fitness (aPCA) (normalised: wild type 0, dead -1); higher = more abundant; growth selection in yeast, the domain comes from the species named. The note with it: Homo sapiens.
For the variant YKPCFVCQDKSSGYHYGVSACEGCKGFFRRSIQKNMIYTCHRDKNCVINKVTRNRCQYCRLQQCFEVGMSKESVRND [K63Q], the abundance fitness is -0.305 ± 0.075.

For YKPCFVCQDKSSGYHYGVSACEGCKGFFRRSIQKNMIYTCHRDKNCVINKVTRNRCQYCRLQWCFEVGMSKESVRND [K63W], the abundance fitness was -0.772 ± 0.095.

As for YKPCFVCQDKSSGYHYGVSACEGCKGFFRRSIQKNMIYTCHRDKNCVINKVTRNRCQYCRLQDCFEVGMSKESVRND [K63D], the abundance fitness was -0.413 ± 0.12.

YKPCFVCQDKSSGYHYGVSACEGCKGFFRRSIQKNMIYTCHRDKNCVINKVTRNRCQYCRLQYCFEVGMSKESVRND [K63Y]: the abundance fitness was -0.37 ± 0.21.

Turning to YKPCFVCQDKSSGYHYGVSACEGCKGFFRRSIQKNMIYTCHRDKNCVINKVTRNRCQYCRLQCCFEVGMSKESVRND [K63C], the abundance fitness is -0.641 ± 0.18.

YKPCFVCQDKSSGYHYGVSACEGCKGFFRRSIQKNMIYTCHRDKNCVINKVTRNRCQYCRLQPCFEVGMSKESVRND [K63P]: the abundance fitness is -0.847 ± 0.21.

With YKPCFVCQDKSSGYHYGVSACEGCKGFFRRSIQKNMIYTCHRDKNCVINKVTRNRCQYCRLQLCFEVGMSKESVRND [K63L], the abundance fitness is -0.272 ± 0.059.

For the variant YKPCFVCQDKSSGYHYGVSACEGCKGFFRRSIQKNMIYTCHRDKNCVINKVTRNRCQYCRLQSCFEVGMSKESVRND [K63S], the abundance fitness was -0.443 ± 0.072.

Regarding YKPCFVCQDKSSGYHYGVSACEGCKGFFRRSIQKNMIYTCHRDKNCVINKVTRNRCQYCRLQGCFEVGMSKESVRND [K63G], the abundance fitness is -0.525 ± 0.044.

YKPCFVCQDKSSGYHYGVSACEGCKGFFRRSIQKNMIYTCHRDKNCVINKVTRNRCQYCRLQACFEVGMSKESVRND [K63A]: the abundance fitness is -0.306 ± 0.06.

With YKPCFVCQDKSSGYHYGVSACEGCKGFFRRSIQKNMIYTCHRDKNCVINKVTRNRCQYCRLQTCFEVGMSKESVRND [K63T], the abundance fitness is -0.11 ± 0.055.

On to YKPCFVCQDKSSGYHYGVSACEGCKGFFRRSIQKNMIYTCHRDKNCVINKVTRNRCQYCRLQECFEVGMSKESVRND [K63E], for which the abundance fitness is -0.588 ± 0.087.

As to YKPCFVCQDKSSGYHYGVSACEGCKGFFRRSIQKNMIYTCHRDKNCVINKVTRNRCQYCRLQHCFEVGMSKESVRND [K63H], the abundance fitness was -0.027 ± 0.12.

Consider YKPCFVCQDKSSGYHYGVSACEGCKGFFRRSIQKNMIYTCHRDKNCVINKVTRNRCQYCRLQRCFEVGMSKESVRND [K63R], for which the abundance fitness is -0.041 ± 0.032.

As to YKPCFVCQDKSSGYHYGVSACEGCKGFFRRSIQKNMIYTCHRDKNCVINKVTRNRCQYCRLHKCFEVGMSKESVRND [Q62H], the abundance fitness came to 0.123 ± 0.081.

For the variant YKPCFVCQDKSSGYHYGVSACEGCKGFFRRSIQKNMIYTCHRDKNCVINKVTRNRCQYCRLNKCFEVGMSKESVRND [Q62N], the abundance fitness was -0.056 ± 0.087.

As for YKPCFVCQDKSSGYHYGVSACEGCKGFFRRSIQKNMIYTCHRDKNCVINKVTRNRCQYCRLPKCFEVGMSKESVRND [Q62P], the abundance fitness is -0.814 ± 0.33.

Regarding YKPCFVCQDKSSGYHYGVSACEGCKGFFRRSIQKNMIYTCHRDKNCVINKVTRNRCQYCRLCKCFEVGMSKESVRND [Q62C], the abundance fitness was -0.268 ± 0.072.

In the case of YKPCFVCQDKSSGYHYGVSACEGCKGFFRRSIQKNMIYTCHRDKNCVINKVTRNRCQYCRLGKCFEVGMSKESVRND [Q62G], the abundance fitness was -0.317 ± 0.05.

As for YKPCFVCQDKSSGYHYGVSACEGCKGFFRRSIQKNMIYTCHRDKNCVINKVTRNRCQYCRLEKCFEVGMSKESVRND [Q62E], the abundance fitness was determined as 0.017 ± 0.059.

As to YKPCFVCQDKSSGYHYGVSACEGCKGFFRRSIQKNMIYTCHRDKNCVINKVTRNRCQYCRLKKCFEVGMSKESVRND [Q62K], the abundance fitness stood at 0.125 ± 0.051.

YKPCFVCQDKSSGYHYGVSACEGCKGFFRRSIQKNMIYTCHRDKNCVINKVTRNRCQYCRLVKCFEVGMSKESVRND [Q62V]: the abundance fitness is 0.026 ± 0.034.

YKPCFVCQDKSSGYHYGVSACEGCKGFFRRSIQKNMIYTCHRDKNCVINKVTRNRCQYCRLWKCFEVGMSKESVRND [Q62W]: the abundance fitness was -0.203 ± 0.047.

In the case of YKPCFVCQDKSSGYHYGVSACEGCKGFFRRSIQKNMIYTCHRDKNCVINKVTRNRCQYCRLAKCFEVGMSKESVRND [Q62A], the abundance fitness was 0.043 ± 0.045.

As to YKPCFVCQDKSSGYHYGVSACEGCKGFFRRSIQKNMIYTCHRDKNCVINKVTRNRCQYCRLLKCFEVGMSKESVRND [Q62L], the abundance fitness was -0.042 ± 0.039.

Turning to YKPCFVCQDKSSGYHYGVSACEGCKGFFRRSIQKNMIYTCHRDKNCVINKVTRNRCQYCRLIKCFEVGMSKESVRND [Q62I], the abundance fitness came to 0.018 ± 0.074.

In the case of YKPCFVCQDKSSGYHYGVSACEGCKGFFRRSIQKNMIYTCHRDKNCVINKVTRNRCQYCRLDKCFEVGMSKESVRND [Q62D], the abundance fitness was -0.107 ± 0.057.

Regarding YKPCFVCQDKSSGYHYGVSACEGCKGFFRRSIQKNMIYTCHRDKNCVINKVTRNRCQYCRLTKCFEVGMSKESVRND [Q62T], the abundance fitness was -0.004 ± 0.061.

Consider YKPCFVCQDKSSGYHYGVSACEGCKGFFRRSIQKNMIYTCHRDKNCVINKVTRNRCQYCRLSKCFEVGMSKESVRND [Q62S], for which the abundance fitness was 0.012 ± 0.041.

On to YKPCFVCQDKSSGYHYGVSACEGCKGFFRRSIQKNMIYTCHRDKNCVINKVTRNRCQYCRLMKCFEVGMSKESVRND [Q62M], for which the abundance fitness was -0.033 ± 0.051.

For YKPCFVCQDKSSGYHYGVSACEGCKGFFRRSIQKNMIYTCHRDKNCVINKVTRNRCQYCRLQKCGEVGMSKESVRND [F65G], the abundance fitness is -0.442 ± 0.037.

On to YKPCFVCQDKSSGYHYGVSACEGCKGFFRRSIQKNMIYTCHRDKNCVINKVTRNRCQYCRLQKCDEVGMSKESVRND [F65D], for which the abundance fitness is -0.423 ± 0.093.

In the case of YKPCFVCQDKSSGYHYGVSACEGCKGFFRRSIQKNMIYTCHRDKNCVINKVTRNRCQYCRLQKCHEVGMSKESVRND [F65H], the abundance fitness was -0.253 ± 0.14.

Turning to YKPCFVCQDKSSGYHYGVSACEGCKGFFRRSIQKNMIYTCHRDKNCVINKVTRNRCQYCRLQKCEEVGMSKESVRND [F65E], the abundance fitness was -0.024 ± 0.042.

As for YKPCFVCQDKSSGYHYGVSACEGCKGFFRRSIQKNMIYTCHRDKNCVINKVTRNRCQYCRLQKCAEVGMSKESVRND [F65A], the abundance fitness is -0.291 ± 0.047.

For the variant YKPCFVCQDKSSGYHYGVSACEGCKGFFRRSIQKNMIYTCHRDKNCVINKVTRNRCQYCRLQKCCEVGMSKESVRND [F65C], the abundance fitness is -0.197 ± 0.082.
